Results as given in patent US10942185B2, “Therapeutic and diagnostic methods for manipulating phagocytosis through calreticulin and low density lipoprotein-related receptor” (The Board of Trustees of the Leland Stanford Junior …, priority 2010, dated 2021).
“Also recorded” adds a separate entry of the source. Blank lines part the entries; values can stand above or below the molecule they belong to.

Columns and labels:
[1] = system: Molm 13 cells; assay: Cell surface calreticulin on staurosporine-treated Molm 13 cells, flow cytometry; type: cell-based, human; details: live cells, compared to isotype control
Source text: (§1) FIGS. 14A-14B. […] Live cells were stained with anti-calreticulin (CRT) antibody conjugated by a fluorophore. […] Live cells were stained with LRP1 cluster IV-Fc protein followed by a secondary anti-Fc antibody conjugated to a fluorophore.

[2] = target: T1, Calreticulin on the cell surface of Molm 13 cells (Homo sapiens, UniProt P27797); assay: LRP1 cluster IV-Fc binding to staurosporine-treated Molm 13 cells, flow cytometry
T1 construct: endogenous in cells; host or cells: Molm 13 (human AML cell line), treated with staurosporine
T1 sequence (P27797 18-417): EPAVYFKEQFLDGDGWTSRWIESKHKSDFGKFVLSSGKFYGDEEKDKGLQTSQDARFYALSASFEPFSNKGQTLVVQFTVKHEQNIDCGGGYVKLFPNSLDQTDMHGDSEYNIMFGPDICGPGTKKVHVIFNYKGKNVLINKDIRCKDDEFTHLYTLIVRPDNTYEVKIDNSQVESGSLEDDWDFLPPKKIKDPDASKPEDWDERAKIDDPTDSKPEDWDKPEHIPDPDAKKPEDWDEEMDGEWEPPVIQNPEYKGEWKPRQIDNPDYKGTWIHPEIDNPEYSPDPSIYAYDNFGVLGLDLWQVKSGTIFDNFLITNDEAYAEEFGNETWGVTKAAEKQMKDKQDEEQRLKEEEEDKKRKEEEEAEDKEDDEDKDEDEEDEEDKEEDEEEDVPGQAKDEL
Source text: as §1

[3] = system: primary human cancer cells; assay: In vitro phagocytosis assay, primary human cancer cells with human macrophages; type: cell-based; details: two hours; for phagocytosis of primary human cancer cells, agent alone: compared to IgG1 isotype control
Description: (§2) Given the known role of CRT as a pro-phagocytic signal, its correlation with CD47 expression (FIG. 2A), and its ability to be counteracted by CD47 (FIG. 2), we investigated whether the expression of cell surface CRT on cancer but not normal cells could explain the selective targeting of tumor cells by a blocking anti-CD47 antibody. In vitro phagocytosis assays were performed by incubating primary human normal cells or cancer cells with human macrophages in the presence of anti-CD47 antibody. CD47 was expressed on all normal and cancer cells profiled (FIG. 2A and FIG. 7, 9), but expression of calreticulin was primarily restricted to tumor cells (FIG. 1A,B). […] (FIG. 3C).
(§3) Generation of human macrophages and in vitro phagocytosis assays were performed as previously described. Primary human samples or cell lines were incubated with 10 μg/ml IgG1 isotype control (Ebiosciences), 10 μg/ml anti-CD47 antibody (clone B6H12.2, ATCC), 4 μg/ml calreticulin blocking peptide (MBL International Corporation), 10 μg/ml RAP (Fitzgerald Industries International), or 125 μg/ml recombinant CRT human protein (Thermo Scientific). Per MBL, confirmation of blocking activity was performed by Western blot analysis, verified by incubation of an anti-CRT antibody with 5 times higher concentration of the peptide and performing a Western blot analysis to determine if the specific band had been diminished. Cells were then analyzed by fluorescence microscopy to determine the phagocytic index (number of cells ingested per 100 macrophages).

[4] = system: NBM cells; assay: In vitro phagocytosis assay, human NBM cells with human macrophages; type: cell-based; details: vs vehicle or IgG1 isotype control
Source text: Next, the relationship between the level of tumor cell surface CRT expression and level of phagocytosis by anti-CD47 antibody was investigated. Cell surface CRT expression on tumor cells positively correlated with the degree of anti-CD47 antibody mediated phagocytosis, regardless of tumor cell type (FIG. 3D). Finally, given that normal cells express minimal levels of cell surface CRT, we investigated whether the addition of CRT to the surface of these cells could enable phagocytosis.
as §3

[5] = system: primary human normal cells; assay: In vitro phagocytosis assay, normal human tissue cells with human macrophages; type: cell-based; details: several normal human tissue types, vs IgG1 isotype control
Description: as §2
as §3, with “Per MBL, confirmation of blocking activity was performed by Western blot analysis, verified by incubation of an anti-CRT antibody with 5 times higher concentration of the peptide and performing a Western blot analysis to determine if the specific band had been diminished.” left out

Molecule: CN[C@@H]1C[C@H]2O[C@@](C)([C@@H]1OC)n1c3ccccc3c3c4c(c5c6ccccc6n2c5c31)C(=O)NC4 [staurosporine]
cell surface calreticulin [1]: increase in cell surface calreticulin

binding to staurosporine-treated Molm 13 cells ([2]; live cells, secondary anti-Fc antibody, flow cytometry): increase in the binding
Molecule: LRP1 cluster IV-Fc protein: LRP1 cluster IV fused to Fc, used to stain cell surface calreticulin

blocking of LRP1 cluster IV-Fc protein binding ([2]; staurosporine-treated Molm 13 cells): can be blocked
Molecule: RAP: receptor-associated protein (RAP), an inhibitor of LRP (Fitzgerald Industries International)
anti-CD47 antibody-mediated phagocytosis of cancer cells ([3]; in the presence of anti-CD47 antibody): completely abrogated in most cases; also recorded: completely abrogated anti-CD47 antibody-mediated phagocytosis
phagocytosis of primary human cancer cells, agent alone [3]: did not enable phagocytosis
phagocytosis of primary human cancer cells, agent alone ([3]; listed as LRP): no effect on phagocytosis

B1: exogenous CRT: recombinant CRT human protein (Thermo Scientific), adsorbs onto the cellular surface and directly binds LRP (protein, UniProt P27797 18-417, looked up)
Calreticulin: T1 sequence (P27797 18-417)
phagocytosis of NBM cells [4]: enabled phagocytosis of NBM cells; also recorded: enabled increased phagocytosis
phagocytosis of NBM cells ([4]; listed as Exogenous CRT): enabled increased phagocytosis of NBM cells

B2: anti-CD47 antibody: blocking monoclonal anti-human CD47 antibody, clone B6H12.2, ATCC (antibody, V domains shown)
VH: EVQLVESGGDLVKPGGSLKLSCAASGFTFSGYGMSWVRQTPDKRLEWVATITSGGTYTYYPDSVKGRFTISRDNAKNTLYLQIDSLKSEDTAIYFCARSLAGNAMDYWGQGTSVTVSS
VL: DIVMTQSPATLSVTPGDRVSLSCRASQTISDYLHWYQQKSHESPRLLIKFASQSISGIPSRFSGSGSGSDFTLSINSVEPEDVGVYYCQNGHGFPRTFGGGTKLEIK
phagocytosis of primary human cancer cells, agent alone [3]: robustly phagocytosed; also recorded: are phagocytosed; also recorded: enabled phagocytosis of cancer cells
phagocytosis of normal human cells [5]: not phagocytosed; also recorded: No difference in phagocytosis
phagocytosis of NBM cells [4]: did not; also recorded: No difference in phagocytosis
